B1: SEQ ID NO 82 (peptide)
peptide: LPAADLAAWCHVMY
B2: SEQ ID NO 84 (peptide)
peptide: LPADDLAAWCHVMY
B3: SEQ ID NO 75 (peptide)
peptide: APSDDLEAWCDVMY
B4: SEQ ID NO 76 (peptide)
peptide: VPSDDLEAWCDVMY
B5: SEQ ID NO 95 (peptide)
peptide: VPSDDLEFWCAVMY
B6: SEQ ID NO 42 (peptide)
peptide: APSDDVAFWCHVMY
B7: SEQ ID NO 87 (peptide)
peptide: AAADDVASWCHVMY
B8: SEQ ID NO 44 (peptide)
peptide: APSDDLEFWCHVMY
B9: SEQ ID NO 81 (peptide)
peptide: LASDDLEFWCHVMY
B10: SEQ ID NO 54 (peptide)
peptide: AAADDLEVWCHVMY
B11: SEQ ID NO 48 (peptide)
peptide: AAADDLEFWCHVMY
B12: SEQ ID NO 65 (peptide)
peptide: VPSDDLAFWCHVMY
B13: SEQ ID NO 91 (peptide)
peptide: APSDDLAFWCDVMY
B14: SEQ ID NO 43 (peptide)
peptide: APADDVEFWCHVMY
B15: SEQ ID NO 89 (peptide)
peptide: APADDLEFWCHAMY
B16: SEQ ID NO 97 (peptide)
peptide: APSDDLAFWCHVVY
B17: SEQ ID NO 50 (peptide)
peptide: AASDDLESWCHVMY
B18: SEQ ID NO 71 (peptide)
peptide: APSDDLASWCHVMY
B19: SEQ ID NO 85 (peptide)
peptide: PPADDLAFWCDVMY
B20: SEQ ID NO 52 (peptide)
peptide: LPADDLAVWCDVMY
B21: SEQ ID NO 61 (peptide)
peptide: APADDLASWCHVMY
B22: SEQ ID NO 57 (peptide)
peptide: AAADDLAAWCDVMY
B23: SEQ ID NO 46 (peptide)
peptide: APSDDLEFWCHAMY
B24: SEQ ID NO 72 (peptide)
peptide: APADDLEFWCHVMY
B25: SEQ ID NO 83 (peptide)
peptide: VPSADLETWCHVMY
B26: SEQ ID NO 63 (peptide)
peptide: VPADDLASWCHVMY
B27: SEQ ID NO 93 (peptide)
peptide: AAADDLAFWCDVMY
B28: SEQ ID NO 56 (peptide)
peptide: APSDDLAAWCHVVY
B29: SEQ ID NO 58 (peptide)
peptide: VASDDLEFWCHVMY
B30: SEQ ID NO 96 (peptide)
peptide: APADDLESWCHVMY
B31: SEQ ID NO 90 (peptide)
peptide: APADDLAFWCDVMY
B32: SEQ ID NO 88 (peptide)
peptide: VAADDLAFWCDVMY
B33: SEQ ID NO 67 (peptide)
peptide: VPADDLAFWCHVMY
B34: SEQ ID NO 49 (peptide)
peptide: AASDDLAAWCHVMY
B35: SEQ ID NO 64 (peptide)
peptide: APADDLEFWCHVVY
B36: SEQ ID NO 74 (peptide)
peptide: APADDLAFWCHVVY
B37: SEQ ID NO 53 (peptide)
peptide: LPSDDLESWCHVMY
B38: SEQ ID NO 45 (peptide)
peptide: APADDLEAWCHVMY
B39: SEQ ID NO 92 (peptide)
peptide: LPADDLAFWCDVMY
B40: SEQ ID NO 51 (peptide)
peptide: APADDLAFWCHVMY
B41: SEQ ID NO 79 (peptide)
peptide: LPSADLESWCHVMY
B42: SEQ ID NO 70 (peptide)
peptide: AASDDLEAWCHVMY
B43: SEQ ID NO 73 (peptide)
peptide: APSDDLAAWCHVMY
B44: SEQ ID NO 78 (peptide)
peptide: VPADDLASWCDVMY
B45: SEQ ID NO 68 (peptide)
peptide: VPSDDLASWCHVMY
B46: SEQ ID NO 80 (peptide)
peptide: AAADDLAFWCHVMY
B47: SEQ ID NO 69 (peptide)
peptide: VPSADLESWCHVMY
B48: SEQ ID NO 77 (peptide)
peptide: AASDDLAFWCHVMY
B49: SEQ ID NO 47 (peptide)
peptide: VASDDLEAWCHVMY
B50: SEQ ID NO 66 (peptide)
peptide: VPADALAVWCDVMY
B51: SEQ ID NO 86 (peptide)
peptide: VASDDLASWCHVVY
B52: SEQ ID NO 59 (peptide)
peptide: AAADDLEAWCAVMY
B53: SEQ ID NO 98 (peptide)
peptide: AAADDLAAWCHVVY
B54: SEQ ID NO 62 (peptide)
peptide: VASDDLASWCHAMY
B55: SEQ ID NO 60 (peptide)
peptide: LAADDLESWCHVMY
B56: SEQ ID NO 55 (peptide)
peptide: VAADALEFWCHVMY
B57: SEQ ID NO 39 (peptide)
peptide: VAADDLAAWCHVMY
B58: SEQ ID NO 13 (peptide)
peptide: LPSDDLEFWCHVMY
notes: also called Fz7-21
B59: SEQ ID NO 4 (peptide)
peptide: ACSYVIDLWNQCLT
B60: SEQ ID NO 15 (peptide)
peptide: FWMQLQDGFAIWFP
B61: SEQ ID NO 1 (peptide)
peptide: YEHLHDLMDLIRPW
notes: also called Fz7-07

Each binder was assayed against T1, hFZD7 CRD-Fc (human, UniProt O75084 33-185) (assay: spot phage ELISA).
Work on B1 yielded a S/N of 48 and a S/W of 3.
B2 gave a S/N of 46.7 and a S/W of 3.1.
In the case of B3, the S/N is reported as 50.2 and the S/W is reported as 2.7.
With B4 the S/N was 49.8 and the S/W was 2.7.
With B5 the S/N was 2.1 and the S/W was 0.1.
B6 showed a S/N of 58.6 and a S/W of 3.1.
For B7, the S/N was 44.5 and the S/W was 2.3.
B8 gave a S/N of 58.3 and a S/W of 3.1.
Binder B9 has a S/N of 48.1 and a S/W of 3.
With B10 the S/N was 54.4 and the S/W was 3.1.
B11 gave a S/N of 56.1 and a S/W of 3.1.
B12 showed a S/N of 53.2 and a S/W of 3.
B13 showed a S/N of 27.4 and a S/W of 3.1.
In the case of B14, the S/N is reported as 58.6 and the S/W is reported as 3.1.
Work on B15 yielded a S/N of 36.3 and a S/W of 1.9.
B16 showed a S/N of 45 and a S/W of 2.5.
With B17 the S/N was 55.6 and the S/W was 2.9.
For B18, the S/N was 52 and the S/W was 3.3.
B19 gave a S/N of 44.9 and a S/W of 2.9.
B20 gave a S/N of 54.9 and a S/W of 3.1.
In the case of B21, the S/N is reported as 53.5 and the S/W is reported as 3.2.
With B22 the S/N was 54 and the S/W was 3.1.
B23 was tested, and the S/N was 57.2 and the S/W was 3.1.
For B24, the S/N was 51.6 and the S/W was 3.
With B25 the S/N was 47.3 and the S/W was 2.8.
Binder B26 has a S/N of 53.4 and a S/W of 3.1.
Work on B27 yielded a S/N of 8.5 and a S/W of 2.7.
Work on B28 yielded a S/N of 54 and a S/W of 2.9.
B29 gave a S/N of 54 and a S/W of 3.2.
B30 showed a S/N of 53.9 and a S/W of 2.9.
B31 was tested, and the S/N was 33.8 and the S/W was 3.
For B32, the S/N was 40.7 and the S/W was 3.
In the case of B33, the S/N is reported as 52.7 and the S/W is reported as 3.1.
B34 was tested, and the S/N was 55.7 and the S/W was 3.
Binder B35 has a S/N of 53.2 and a S/W of 3.1.
For B36, the S/N was 50.6 and the S/W was 3.2.
With B37 the S/N was 54.5 and the S/W was 3.
B38 was tested, and the S/N was 58.1 and the S/W was 3.1.
Work on B39 yielded a S/N of 23.8 and a S/W of 2.8.
B40 gave a S/N of 55.1 and a S/W of 3.
For B41, the S/N was 48.6 and the S/W was 2.9.
In the case of B42, the S/N is reported as 52.1 and the S/W is reported as 3.1.
With B43 the S/N was 51.3 and the S/W was 3.
Work on B44 yielded a S/N of 49.2 and a S/W of 2.9.
For B45, the S/N was 52.2 and the S/W was 3.1.
With B46 the S/N was 48.2 and the S/W was 3.1.
For B47, the S/N was 52.2 and the S/W was 2.9.
B48 showed a S/N of 49.7 and a S/W of 3.1.
For B49, the S/N was 57 and the S/W was 3.1.
In the case of B50, the S/N is reported as 53 and the S/W is reported as 2.9.
Binder B51 has a S/N of 44.8 and a S/W of 2.5.
B52 was tested, and the S/N was 53.6 and the S/W was 3.1.
For B53, the S/N was 50.8 and the S/W was 2.7.
With B54 the S/N was 53.5 and the S/W was 3.
B55 showed a S/N of 53.5 and a S/W of 3.
Binder B56 has a S/N of 54.2 and a S/W of 3.
For B57, the S/N was 60.7 and the S/W was 3.4.

Target: T1, hFZD7 CRD-Fc
Assay: spot phage ELISA
Remark: another data set of the same source
B58 was tested, and the “signal:noise ratio” value was 24.5.
For B59, the “signal:noise ratio” value was 26.8.
B60 was tested, and the “signal:noise ratio” value was 27.8.
For B61, the “signal:noise ratio” value was 23.2.

These binders were tested against T2, hFZD8 CRD-Fc (human, UniProt Q9H461 28-158, limits assumed) (assay: spot phage ELISA).
T2 construct: domain: CRD; bought (R&D Systems); not shown: Fc part
T2 sequence (looked up): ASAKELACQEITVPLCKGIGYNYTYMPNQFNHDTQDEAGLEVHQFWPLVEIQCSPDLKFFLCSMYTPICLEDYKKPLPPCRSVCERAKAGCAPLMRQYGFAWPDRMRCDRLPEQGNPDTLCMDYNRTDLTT
B58 was tested, and the “signal:noise ratio” value was 1.1.
B59 was tested, and the “signal:noise ratio” value was 3.1.
For B61, the “signal:noise ratio” value was 1.6.

Reference: US20190359653A1 (Genentech, published 2019)
